*1 amine or outer side, *2 acyl side, *3 side chain or, on linkers, in order; H or OH if unused. [ ]: non-standard residue; d: D form. The star is where a group is joined. ABG = 4-azidobenzoyl glycine, attached via its N-hydroxysuccinimide ester, [N-]=[N+]=Nc1ccc(C(=O)NCC(=O)*)cc1; Tyr(125I) = radioiodinated (125I) tyrosine, O=C([C@H](Cc1ccc(O[*:3])c([125I])c1)N[*:1])[*:2]
Legend:
human LH = target: T1, human LH (Homo sapiens, UniProt P01215+P01229); assay: Photoaffinity labeling of LH with ABG-^125I-LHR^exo3; assay type: binding; conditions: increasing concentrations of LH
T1 construct: purchased National Hormone and Pituitary Program
T1 sequence (P01215 25-116): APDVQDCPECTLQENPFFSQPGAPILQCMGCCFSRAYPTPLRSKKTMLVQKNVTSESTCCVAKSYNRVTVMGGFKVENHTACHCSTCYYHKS
T1 sequence (P01229 21-141): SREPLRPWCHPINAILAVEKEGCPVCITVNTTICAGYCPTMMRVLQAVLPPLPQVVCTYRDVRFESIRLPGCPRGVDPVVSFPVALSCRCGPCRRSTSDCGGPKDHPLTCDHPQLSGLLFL
Experimental: The samples were processed.
(§1) The mixtures were incubated at 37° C. for 90 minutes in the dark, irradiated with Mineralight R-52 UV lamp for 3 minutes as previously described, and solubilized in 2% SDS, 100 mM dithiothreitol and 8 M urea. The samples were electrophoresed on 8-12% polyacrylamide gradient gels. Gels were dried on filter paper and exposed to an imaging screen overnight, which was scanned on a phosphoimager. Exoloop 3 was modeled.

hCG = target: T2, hCG (Homo sapiens, UniProt P01215+P0DN86); assay: Photoaffinity labeling of hCG with ABG-^125I-LHR^exo3; assay type: binding; conditions: for inhibition of photoaffinity labeling of hCG by ABG-^125I-LHR^exo3: 4 mM of nonlabeled peptide
T2 construct: purchased National Hormone and Pituitary Program
T2 sequence (P01215 25-116, other chains not shown): as the sequence (P01215 25-116) above
Experimental: A peptide mimic corresponding to the LHR exoloop 3 sequence of K^573 […]^583 (LHR^exo3) was synthesized, to which a Tyr residue was attached to the C-terminus for radioiodination. The N-terminus of the peptide was acetylated and the C-terminus amidated. NHS-ABG was synthesized as previously described and freshly dissolved in dimethyl sulfoxide to a concentration of 50 mM. The reagent was diluted in 0.1 M sodium phosphate (pH 7.5) to a concentration of 20 mM. The reagent solution was immediately used to derivatize receptor peptides. In the dark, […] of NHS-ABG was added to […] of receptor peptides in […] of 0.1 M sodium phosphate (pH 7.5), and the mixture was incubated for 30 minutes at 25° C. […] After 20 seconds, 7 μl of sodium metabisulfite (2.5 mg/ml) in 10 mM Na2 HPO4, pH 7.4, was introduced to terminate radioiodination. Derivatized and radioiodinated ABG-^exo3 I-LHR^exo3 solution was mixed with 60 μl of 16% sucrose solution in PBS and fractionated on Sephadex Superfine G-10 column (0.6×15 cm) using PBS.
as §1

[1] = tested on: phospholipase A, phospholipase C, phospholipase D and urokinase; assay: Labeling specificity of ABG-^125I-LHR^exo3 on other proteins; assay type: binding
Experimental: as §1

FSHR = assay: Inhibition of ^125I-FSH binding to the receptor on intact cells by exoloop 3 peptide; parameters: species or system human
Sequence of FSHR (P23945 18-695): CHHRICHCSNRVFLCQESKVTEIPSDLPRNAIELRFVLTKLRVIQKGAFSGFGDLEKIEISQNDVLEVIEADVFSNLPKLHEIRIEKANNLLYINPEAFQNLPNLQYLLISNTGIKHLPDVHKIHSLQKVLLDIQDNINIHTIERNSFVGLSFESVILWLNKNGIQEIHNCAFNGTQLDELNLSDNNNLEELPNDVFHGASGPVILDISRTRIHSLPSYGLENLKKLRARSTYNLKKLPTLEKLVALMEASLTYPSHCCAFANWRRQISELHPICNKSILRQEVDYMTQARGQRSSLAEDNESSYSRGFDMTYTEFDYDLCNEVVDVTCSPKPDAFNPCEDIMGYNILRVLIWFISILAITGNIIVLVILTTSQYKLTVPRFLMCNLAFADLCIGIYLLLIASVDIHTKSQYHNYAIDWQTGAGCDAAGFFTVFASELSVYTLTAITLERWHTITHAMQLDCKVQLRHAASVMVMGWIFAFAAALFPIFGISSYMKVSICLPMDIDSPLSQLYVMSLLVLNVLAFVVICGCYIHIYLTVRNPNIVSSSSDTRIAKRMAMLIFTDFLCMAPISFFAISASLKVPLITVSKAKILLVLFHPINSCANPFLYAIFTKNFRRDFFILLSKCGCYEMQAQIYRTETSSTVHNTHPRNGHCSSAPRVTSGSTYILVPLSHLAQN
Experimental: The FSH a and b subunits separated in the lower band and upper band, respectively.
Human FSH (the National Hormone and Pituitary Program) was radioiodinated as previously described for radioiodination of hCG. […] The Kd values were determined by Scatchard plots. Truncated exodomain was solubilized in Nonidet P-40 and assayed for hormone binding as described previously. For intracellular cAMP assay, cells were washed twice with Dulbecco's modified Eagle's media and incubated in the media containing isobutylmethylxanthine (0.1 mg/ml) for 15 minutes. Increasing concentrations of FSH were then added and the incubation was continued for 45 minutes at 37° C. After removing the media, the cells were rinsed once with fresh media without isobutylmethylxanthine, lysed in 70% ethanol, freeze-thawed in liquid nitrogen, and scraped. […] Exoloop 3 of FSHR was modeled based on the crystal structure of rhodopsin as a template.

FSH [2] = target: T3, FSH (Homo sapiens, UniProt P01215+P01225); assay: Photoaffinity labeling of FSH with exoloop 3 peptide (ABG-^125I-FSHR^exo3); assay type: binding; conditions: increasing concentrations of unlabeled FSHR peptides
T3 construct: purchased National Hormone and Pituitary Program
T3 sequence (P01215 25-116): as the sequence (P01215 25-116) above
T3 sequence (P01225 19-129): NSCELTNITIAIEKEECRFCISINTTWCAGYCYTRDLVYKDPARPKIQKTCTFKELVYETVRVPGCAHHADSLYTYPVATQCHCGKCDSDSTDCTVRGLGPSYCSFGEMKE
Experimental: A peptide mimic corresponding to the exoloop 3 sequence of K^580 […]^590 (FSHR exo3) (SEQ ID NO: 3) was synthesized, to which a Tyr residue was attached to the C-terminus for radioiodination. The N-terminus of the peptide was acetylated and the C-terminus amidated. NHS-ABG was synthesized as previously described and freshly dissolved in dimethyl sulfoxide to a concentration of 50 mM and NHS-ABG in 0.1 M sodium phosphate (pH 7.5) to a concentration of 20 mM. These reagent solutions were immediately used to derivatize receptor peptides. In the dark, 10 μl of NHS-ABG was added to […] of receptor peptides in 40 μl of 0.1 M sodium phosphate (pH 7.5). The mixture was incubated with NHS-ABG for 30 minutes at 25° C. […] After 20 sec, 7 μl of sodium metabisulfite (2.5 mg/ml) in 10 mM Na2 HPO4, pH 7.4, was introduced to terminate radioiodination.
Competitive inhibition experiments were carried out for the photoaffinity labeling experiments. 10 μl of PBS was introduced to each tube and the mixture was incubated with 10 μl of increasing concentrations of nonradioactive receptor peptides. The mixtures were incubated at 37° C. for 90 minutes in the dark, irradiated with Mineralight R-52 UV lamp for 3 minutes as previously described, and solubilized in 2% SDS, 100 mM dithiothreitol and 8 M urea. The samples were electrophoresed on 8-12% polyacrylamide gradient gels. […]

LHR = target: T4, LHR (Homo sapiens, UniProt P22888); assay: Inhibition of ^125I-hCG binding to cells stably expressing LHR; conditions: increasing concentrations of nonradioactive competitor
T4 construct: expressed in transfected cells
T4 sequence (P22888 27-699): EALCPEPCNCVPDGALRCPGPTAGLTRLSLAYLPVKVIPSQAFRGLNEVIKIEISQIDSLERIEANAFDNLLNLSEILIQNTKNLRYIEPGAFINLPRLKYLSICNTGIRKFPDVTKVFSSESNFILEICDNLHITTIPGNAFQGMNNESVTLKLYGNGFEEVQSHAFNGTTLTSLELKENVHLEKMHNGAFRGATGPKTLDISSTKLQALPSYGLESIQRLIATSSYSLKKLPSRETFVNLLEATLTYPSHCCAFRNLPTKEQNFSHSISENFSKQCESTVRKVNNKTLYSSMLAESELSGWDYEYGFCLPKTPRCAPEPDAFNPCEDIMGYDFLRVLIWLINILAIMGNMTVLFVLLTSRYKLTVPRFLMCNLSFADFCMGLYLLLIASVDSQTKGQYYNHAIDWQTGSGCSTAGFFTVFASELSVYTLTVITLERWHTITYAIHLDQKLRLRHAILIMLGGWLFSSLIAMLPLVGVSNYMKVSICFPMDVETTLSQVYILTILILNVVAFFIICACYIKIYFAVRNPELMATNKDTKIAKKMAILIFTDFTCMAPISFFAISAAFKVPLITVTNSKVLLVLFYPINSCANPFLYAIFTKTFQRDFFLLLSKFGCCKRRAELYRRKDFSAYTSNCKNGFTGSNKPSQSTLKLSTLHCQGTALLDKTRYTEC
Experimental: The cells were washed and bound radioactivity was measured.
The Kd values were determined by Scatchard plots. For intracellular cAMP assay, cells were washed twice with Dulbecco's modified Eagle's media and incubated in the media containing isobutylmethylxanthine (0.1 mg/ml) for 15 minutes. Increasing concentrations of hormone were then added and the incubation was continued for 45 minutes at 37° C. After removing the media, the cells were rinsed once with fresh media without isobutylmethylxanthine, lysed in 70% ethanol, freeze-thawed in liquid nitrogen, and scraped.

human LHR = assay: Inositol phosphate assay, LHR exoloop 3 mutants in HEK 293 cells, hCG stimulated; assay type: cell-based; conditions: NS = not significant
Sequence of human LHR (P22888 27-363 limits assumed): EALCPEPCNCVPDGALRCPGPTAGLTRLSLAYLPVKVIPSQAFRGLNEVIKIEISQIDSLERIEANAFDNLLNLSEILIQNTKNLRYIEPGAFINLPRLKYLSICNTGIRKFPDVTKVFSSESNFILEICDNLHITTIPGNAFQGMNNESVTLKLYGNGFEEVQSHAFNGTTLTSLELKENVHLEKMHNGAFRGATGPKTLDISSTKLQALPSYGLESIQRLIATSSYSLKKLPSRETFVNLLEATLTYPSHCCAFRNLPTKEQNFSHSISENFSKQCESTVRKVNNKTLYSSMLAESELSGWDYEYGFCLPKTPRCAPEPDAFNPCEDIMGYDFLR
Experimental: Stable cells were plated in 12 well plates and grown in inositol free DMEM (Atlanta Biologicals) supplemented with 8% heat-inactivated horse serum and […] [^3H]inositol (NEN) for 48 hours to 40-50% confluency. After removing the medium, the cells were incubated in 1 ml of fresh wash buffer consisting of DMEM w/o inositol and 15 mM HEPES (pH 7.3) for 1 hour at 37° C. This medium was removed and 0.3 ml wash buffer containing 20 mM LiCl was added and incubated for 15 minutes at 37° C. After the cells were stimulated with increasing concentrations of hormone for 30 minutes at 37° C., the incubation was terminated by the removal of medium and the addition of 0.25 ml of 0.6 N HCl to each well. The cells were scraped, transferred into microcentrifuge tubes and the wells were again washed with 0.25 ml of 0.6 N HCl. The combined washes were treated with 0.9 ml of a mixture of chloroform:methanol (2:1), vortexed and centrifuged at 1000×g for 5 minutes at room temperature. The top aqueous layer, which was free of phospholipids, was removed and the remaining chloroform layer treated with 0.2 ml of methanol:water (1:1), vortexed and centrifuged, as above. This aqueous layer was added to the previous aqueous layer and the samples dried in a vacuum concentrator. […] Aliquots of 200 μl were counted for radioactivity in 1.5 ml of Ultima AF scintillation fluid (Packard). […]

FSH [3] = target: T3, FSH; assay: Photoaffinity labeling of FSH with ^125I-FSHR^9-40F13Bpa; assay type: binding; conditions: increasing concentrations of nonradioactive peptide
Experimental: In the dark, 30 μg of receptor peptides in 40 μl of 0.1 M sodium phosphate (pH 7.5). The mixture was incubated for 30 minutes at 25° C. […] After 20 seconds, 7 μl of sodium metabisulfite (2.5 mg/ml) in 10 mM Na2HPO4, pH 7.4, was introduced to terminate radioiodination.
as §1, with “with a” for “with”, “minutes,” for “minutes as previously described,”, “phosphoimager (Molecular Dynamics).” for “phosphoimager. Exoloop 3 was modeled.”
The FSH α and β subunits co-migrate on SDS-PAGE. To separate them on the gel FSH was deglycosylated with PNGase F and after it was photoaffinity labeled. Enzymatic cleavage was done by incubation of the labeled FSH complex with 20 or 50 units of PNGase F (New England BioLabs, Inc., MA) in 40 μl for 18 hours at 37° C. The samples were solubilized in SDS under the reducing condition and electrophoresed on 15% gel containing 9 M urea.

For “ABG-^125I-LHR^exo3: LHR exoloop 3 peptide derivatized with N-hydroxysuccinimide of 4-azidobenzoyl glycine and radio-iodinated (Ac-KVPLITVTNSK(ABG)[Tyr(125I)]-NH2; also: derivatized with N-hydroxysuccinimide ester of 4-azidobenzoyl glycine, radio-iodinated (125I))”, the “photoaffinity labeling of LH subunits” value (human LH) was “Both of the α and β subunits of LH were labeled”, the “labeled hCG subunits” value (hCG) was “the a band labeled slightly more than the β band” and the “hCG concentration at which the maximum labeling was reached” value (hCG; both hormone subunits, constant amount of probe) was 50 nM. The “photoaffinity labeling of denatured hCG” value (hCG; hCG boiled in 8 M urea) was “not labeled at all” and the “photoaffinity labeling of phospholipase A, phospholipase C, phospholipase D and urokinase” value [1] was “not photoaffinity labeled”.
With “FSHR^exo3: peptide mimic of FSHR exoloop 3, KVPLITVSKAK (SEQ ID NO: 3), C-terminal Tyr, N-acetylated, C-amidated (Ac-KVPLITVSKAKY-NH2)” the “inhibition of ^125I-FSH binding to the receptor on intact cells” value (FSHR) was “inhibited ^125I-FSH binding to the receptor on intact cells in a dose dependent manner” and the “inhibition of photoaffinity labeling of FSH by ^125I-ABG-FSHR^exo3” value (FSH [2]) was “inhibited the photoaffinity labeling in a dose dependent manner”.
For “LHR^18-36: N-terminal peptide of the LHR exodomain (CPGPTAGLTRLSLAYLPVK)”, the “inhibition of photoaffinity labeling of hCG by ABG-^125I-LHR^exo3” value (hCG) was “failed to inhibit the labeling”.
“LHR^exo3: peptide mimic of LHR exoloop 3, KVPLITVTNSK, C-terminal Tyr, N-acetylated, C-amidated (Ac-KVPLITVTNSKY-NH2)” was tested, and the “inhibition of ^125I-hCG binding to LHR” value (LHR) was “inhibited ^125I-hCG binding to LHR” and the “inhibition of photoaffinity labeling of hCG by ABG-^125I-LHR^exo3” value (hCG) was “blocked the labeling”.
With “Wildtype: wild type human LH receptor expressed in HEK 293 cells (Table II)” the “IP1 (cpm)” value (human LHR) was 13,780-w cpm.
In the case of “FSHR^9-40: peptide mimic of FSH receptor sequence S9-K40, SNRVFLCQESKVTEIPSDLPRNAIELRFVLTK (SEQ ID NO: 2) (Ac-YSNRVFLCQESKVTEIPSDLPRNAIELRFVLTK-NH2; not fully specified (some residues); printed as S9NRVFLCQESKVTEIPSDLPRNAIELRFVLTK40)”, the “inhibition of photoaffinity labeling of FSH by ^125I-ABG-FSHR^exo3” value (FSH [2]) is reported as “inhibited the photoaffinity labeling in a dose dependent manner” and the “inhibition of photoaffinity labeling of FSH by ^125I-FSHR^9-40F13Bpa” value (FSH [3]) is reported as “inhibited the photoaffinity labeling in a dose dependent manner”.

From patent US20050142135A1, “Agents and methods for modulating interactions between gonadotropin hormones and receptors” (University of Kentucky Research Foundation, priority 2003, published 2005)
